This is an account of results in paper PMC10427625, “Structural basis for negative regulation of the Escherichia coli maltose system” (Nature Communications, 2023).

Where a chain is given by its changes, count along the chain named. Names and notes keep the numbering of the source.

Sequences and labels used below:
B1: MalT (wild type), N-terminally His-tagged (natural protein, Escherichia coli, UniProt P06993 1-901, looked up)
chain: MLIPSKLSRPVRLDHTVVRERLLAKLSGANNFRLALITSPAGYGKTTLISQWAAGKNDIGWYSLDEGDNQQERFASYLIAAVQQATNGHCAICETMAQKRQYASLTSLFAQLFIELAEWHSPLYLVIDDYHLITNPVIHESMRFFIRHQPENLTLVVLSRNLPQLGIANLRVRDQLLEIGSQQLAFTHQEAKQFFDCRLSSPIEAAESSRICDDVSGWATALQLIALSARQNTHSAHKSARRLAGINASHLSDYLVDEVLDNVDLATRHFLLKSAILRSMNDALITRVTGEENGQMRLEEIERQGLFLQRMDDTGEWFCYHPLFGNFLRQRCQWELAAELPEIHRAAAESWMAQGFPSEAIHHALAAGDALMLRDILLNHAWSLFNHSELSLLEESLKALPWDSLLENPQLVLLQAWLMQSQHRYGEVNTLLARAEHEIKDIREDTMHAEFNALRAQVAINDGNPDEAERLAKLALEELPPGWFYSRIVATSVLGEVLHCKGELTRSLALMQQTEQMARQHDVWHYALWSLIQQSEILFAQGFLQTAWETQEKAFQLINEQHLEQLPMHEFLVRIRAQLLWAWARLDEAEASARSGIEVLSSYQPQQQLQCLAMLIQCSLARGDLDNARSQLNRLENLLGNGKYHSDWISNANKVRVIYWQMTGDKAAAANWLRHTAKPEFANNHFLQGQWRNIARAQILLGEFEPAEIVLEELNENARSLRLMSDLNRNLLLLNQLYWQAGRKSDAQRVLLDALKLANRTGFISHFVIEGEAMAQQLRQLIQLNTLPELEQHRAQRILREINQHHRHKFAHFDENFVERLLNHPEVPELIRTSPLTQREWQVLGLIYSGYSNEQIAGELEVAATTIKTHIRNLYQKLGVAHRQDAVQHAQQLLKMMGYGV
notes: Purified with 0.1 mM ADP or 0.4 mM ATP; the elution at 103 kDa fits the whole protein; In PDB 8BOB only residues 1-423 are well defined; also called WT MalT; MalT WT; source: E. coli BL21 (DE3) ΔmalT220, purified (Ni Sepharose, gel filtration)
B2: MalT-R9S, N-terminally His-tagged (natural protein, Escherichia coli, UniProt P06993 1-901, looked up)
chain: B1 chain with R9S
notes: MalT of Escherichia coli, variant of plasmid pOM206 made by site-directed mutagenesis; source: E. coli BL21 (DE3) ΔmalT220, purified (Ni Sepharose, gel filtration)
B3: MalT-S8A, N-terminally His-tagged (natural protein, Escherichia coli, UniProt P06993 1-901, looked up)
chain: B1 chain with S8A
notes: as for B2
B4: MalT-S5L, N-terminally His-tagged (natural protein, Escherichia coli, UniProt P06993 1-901, looked up)
chain: B1 chain with S5L
notes: as for B2
B5: MalT-R143A, N-terminally His-tagged (natural protein, Escherichia coli, UniProt P06993 1-901, looked up)
chain: B1 chain with R143A
notes: as for B2
B6: MalT-N169A, N-terminally His-tagged (natural protein, Escherichia coli, UniProt P06993 1-901, looked up)
chain: B1 chain with N169A
notes: as for B2
B7: MalT-E140A, N-terminally His-tagged (natural protein, Escherichia coli, UniProt P06993 1-901, looked up)
chain: B1 chain with E140A
notes: as for B2
B8: MalT-R173A, N-terminally His-tagged (natural protein, Escherichia coli, UniProt P06993 1-901, looked up)
chain: B1 chain with R173A
notes: as for B2
B9: MalY (wild type), GST tag removed (enzyme, Escherichia coli, UniProt P23256 1-390, looked up)
chain: MFDFSKVVDRHGTWCTQWDYVADRFGTADLLPFTISDMDFATAPCIIEALNQRLMHGVFGYSRWKNDEFLAAIAHWFSTQHYTAIDSQTVVYGPSVIYMVSELIRQWSETGEGVVIHTPAYDAFYKAIEGNQRTVMPVALEKQADGWFCDMGKLEAVLAKPECKIMLLCSPQNPTGKVWTCDELEIMADLCERHGVRVISDEIHMDMVWGEQPHIPWSNVARGDWALLTSGSKSFNIPALTGAYGIIENSSSRDAYLSALKGRDGLSSPSVLALTAHIAAYQQGAPWLDALRIYLKDNLTYIADKMNAAFPELNWQIPQSTYLAWLDLRPLNIDDNALQKALIEQEKVAIMPGYTYGEEGRGFVRLNAGCPRSKLEKGVAGLINAIRAVR
notes: MalY, PLP-dependent dimeric enzyme of E. coli; full-length malY amplified from E. coli genomic DNA, cloned in pGEX-6P-1; the printed mass of 2 × 43.5 kDa fits the untagged protein; Each subunit holds the cofactor PLP; also called MalY WT; source: E. coli BL21 (DE3) ΔmalT220, purified (Glutathione Sepharose, gel filtration); not shown: GST, N-terminal, cleaved

One series deals with ADP. Put plainly: luciferase assay of protein-bound nucleotide. Also on record: unit not given here. Conditions: parent: est. 98; read off a plot.
The target in the next series is ATP. In words: luciferase assay of protein-bound nucleotide. Also on record: unit not given here. Particulars: parent: est. 0; read off a plot.
Series [1] deals with B9. Put plainly: cryo-EM structure; purified MalT-MalY complex at about 0.5 mg/ml, ADP and PLP bound; 2.94 Å, C2 symmetry. Conditions: both partners purified.
Series [2] deals with the molecule itself. In words: SEC; Superdex 200 Increase 10/300 GL, in the presence of 1 mM maltotriose and 0.1 mM ADP; same molar amounts of MalT and MalY WT or MalY-D182A/E185A/S218A, separately or together; fractions on SDS-PAGE.
Series [3] concerns the molecule itself. Put plainly: SEC; Superose 6 Increase 10/300 GL, 4 °C; MalT pre-incubated at 20 °C for 20 min in buffer I; run in buffer E with 1 mM maltotriose and 0.4 mM ATP; self-association of MalT.
Series [4] concerns the molecule itself. Put plainly: SEC; Superdex 200 Increase 10/300 GL, 4 °C, in the presence of ADP; MalT (buffer A, 0.1 mM ADP) and MalY (buffer TKCl, 10 μM PLP) each alone, or incubated at a 1:1 molar ratio on ice for 30 min and run in buffer TKCl with 0.1 mM ADP and 10 μM PLP.
The target in series [5] is B1. The series is described as above. Conditions: both partners purified.

Regarding “MalT (wild type), N-terminally His-tagged (from UniProt P06993) R19A”, the figures for the other: Nucleotide content with ADP and in the series with ATP were 28 and 7.5, respectively. The like results for “MalT (wild type), N-terminally His-tagged (from UniProt P06993) K6A” were, in that order, 13 and 58.

In general, stoichiometry N refers to a count of units in the complex or per binding partner. Consider B1, for which the “stoichiometry N” value in series [1] is 1 MalT per MalY (printed as 2:2). Besides, the binding result in series [2] is on record as “binds”.

For the molecule B2, the binding result in series [3] is given as “binds”. As to B3, the binding result in series [3] was “binds”. Still for that read-out and setting: the same measure for B4: “binds”; for B5: “binds”; for B6: “binds”. Still for that read-out and setting: then B7, with “binds”; and B8, with “binds”. B9: the “stoichiometry N” value in series [4] was found to be 2. Moreover, in series [5], the binding result is recorded as “binds”.
